Data taken from the supplement of paper PMC9112550, “Optimization of the antimicrobial peptide Bac7 by deep mutational scanning” (BMC Biology, 2022).

System: Escherichia coli TOP10
Assay: shrunken log2 fold change of peptide-encoding DNA abundance (4.5 h post-induction vs induction); higher = less antimicrobial activity (less host growth inhibition)
Details: time post-induction: 4.5 h; library: site-saturation at positions 5, 18, 19, 20
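Note: peptides expressed intracellularly from a pBAD plasmid library in pooled LB shake-flask culture, induced with 0.3% L-arabinose, DNA abundance read by NGS, three biological replicates, DESeq2 with apeglm shrinkage.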

Row | Sequence | shrunken log2 fold change
1 | RRIRVRPPRLPRPRPRPWNAPRP | -0.0893
2 | RRIRVRPPRLPRPRPRPWPFPRP | 0.14
3 | RRIRVRPPRLPRPRPRPWSNPRP | -0.0426
4 | RRIRVRPPRLPRPRPRPWVRPRP | 0.0573
5 | RRIRVRPPRLPRPRPRPWWMPRP | -0.26
6 | RRIRVRPPRLPRPRPRPWYDPRP | -0.00243
7 | RRIRVRPPRLPRPRPRPYAQPRP | 0.0393
8 | RRIRVRPPRLPRPRPRPYASPRP | 0.00213
9 | RRIRVRPPRLPRPRPRPYCNPRP | -0.501
10 | RRIRVRPPRLPRPRPRPYDMPRP | -0.382
11 | RRIRVRPPRLPRPRPRPYEPPRP | -1.29
12 | RRIRVRPPRLPRPRPRPYFGPRP | -0.0505
13 | RRIRVRPPRLPRPRPRPYHDPRP | -0.182
14 | RRIRVRPPRLPRPRPRPYHNPRP | -0.946
15 | RRIRVRPPRLPRPRPRPYHVPRP | -0.055
16 | RRIRVRPPRLPRPRPRPYITPRP | -0.77
17 | RRIRVRPPRLPRPRPRPYKDPRP | -0.933
18 | RRIRVRPPRLPRPRPRPYKFPRP | -0.475
19 | RRIRVRPPRLPRPRPRPYLKPRP | -0.0795
20 | RRIRVRPPRLPRPRPRPYPYPRP | -0.0982
21 | RRIRVRPPRLPRPRPRPYQFPRP | -0.0508
22 | RRIRVRPPRLPRPRPRPYRIPRP | 0.0112
23 | RRIRVRPPRLPRPRPRPYRPPRP | -0.462
24 | RRIRVRPPRLPRPRPRPYTPPRP | -0.645
25 | RRIRVRPPRLPRPRPRPYVQPRP | -0.918

Row | Sequence | shrunken log2 fold change
26 | RRIRVRPPRLPRPRPRPYYNPRP | -0.548
27 | RRIRWRPPRLPRPRPRPAAHPRP | 0.167
28 | RRIRWRPPRLPRPRPRPAAIPRP | 0.302
29 | RRIRWRPPRLPRPRPRPADAPRP | 0.739
30 | RRIRWRPPRLPRPRPRPAEDPRP | 0.711
31 | RRIRWRPPRLPRPRPRPAGKPRP | 0.0305
32 | RRIRWRPPRLPRPRPRPAGQPRP | 0.218
33 | RRIRWRPPRLPRPRPRPAGSPRP | -0.176
34 | RRIRWRPPRLPRPRPRPAHAPRP | 0.191
35 | RRIRWRPPRLPRPRPRPAHKPRP | 0.344
36 | RRIRWRPPRLPRPRPRPAHMPRP | 0.0152
37 | RRIRWRPPRLPRPRPRPAIAPRP | 0.242
38 | RRIRWRPPRLPRPRPRPAISPRP | -0.00844
39 | RRIRWRPPRLPRPRPRPAKHPRP | 0.192
40 | RRIRWRPPRLPRPRPRPANNPRP | -0.205
41 | RRIRWRPPRLPRPRPRPAPKPRP | 0.992
42 | RRIRWRPPRLPRPRPRPAPMPRP | 0.615
43 | RRIRWRPPRLPRPRPRPAQHPRP | 0.363
44 | RRIRWRPPRLPRPRPRPARIPRP | 0.176
45 | RRIRWRPPRLPRPRPRPARWPRP | 1.07
46 | RRIRWRPPRLPRPRPRPASAPRP | 0.298
47 | RRIRWRPPRLPRPRPRPASLPRP | 0.0313
48 | RRIRWRPPRLPRPRPRPASVPRP | 0.00924
49 | RRIRWRPPRLPRPRPRPAVPPRP | 0.506
50 | RRIRWRPPRLPRPRPRPAWMPRP | 0.139

Row | Sequence | shrunken log2 fold change
51 | RRIRWRPPRLPRPRPRPAYCPRP | -0.0978
52 | RRIRWRPPRLPRPRPRPAYKPRP | -0.182
53 | RRIRWRPPRLPRPRPRPAYSPRP | -0.153
54 | RRIRWRPPRLPRPRPRPCAIPRP | 0.027
55 | RRIRWRPPRLPRPRPRPCARPRP | 0.0277
56 | RRIRWRPPRLPRPRPRPCAWPRP | 0.0191
57 | RRIRWRPPRLPRPRPRPCCPPRP | -0.206
58 | RRIRWRPPRLPRPRPRPCFGPRP | -0.119
59 | RRIRWRPPRLPRPRPRPCFHPRP | -0.247
60 | RRIRWRPPRLPRPRPRPCFKPRP | 0.0478
61 | RRIRWRPPRLPRPRPRPCGSPRP | -0.0157
62 | RRIRWRPPRLPRPRPRPCHGPRP | 0.0694
63 | RRIRWRPPRLPRPRPRPCIQPRP | -0.394
64 | RRIRWRPPRLPRPRPRPCKCPRP | -0.0392
65 | RRIRWRPPRLPRPRPRPCMIPRP | -0.471
66 | RRIRWRPPRLPRPRPRPCMPPRP | -0.425
67 | RRIRWRPPRLPRPRPRPCPTPRP | 0.0714
68 | RRIRWRPPRLPRPRPRPCQLPRP | -0.0812
69 | RRIRWRPPRLPRPRPRPCQQPRP | -0.219
70 | RRIRWRPPRLPRPRPRPCQRPRP | 1.03
71 | RRIRWRPPRLPRPRPRPCQWPRP | 0.0226
72 | RRIRWRPPRLPRPRPRPCRFPRP | 0.0225
73 | RRIRWRPPRLPRPRPRPCSEPRP | -0.206
74 | RRIRWRPPRLPRPRPRPCVDPRP | 0.0275
75 | RRIRWRPPRLPRPRPRPCVGPRP | 0.352

Row | Sequence | shrunken log2 fold change
76 | RRIRWRPPRLPRPRPRPCWGPRP | -0.122
77 | RRIRWRPPRLPRPRPRPCWLPRP | -0.119
78 | RRIRWRPPRLPRPRPRPCWPPRP | 0.427
79 | RRIRWRPPRLPRPRPRPCWYPRP | -0.277
80 | RRIRWRPPRLPRPRPRPDAPPRP | 0.558
81 | RRIRWRPPRLPRPRPRPDCCPRP | 0.777
82 | RRIRWRPPRLPRPRPRPDCFPRP | 1.32
83 | RRIRWRPPRLPRPRPRPDCMPRP | 0.259
84 | RRIRWRPPRLPRPRPRPDGRPRP | -0.00151
85 | RRIRWRPPRLPRPRPRPDHKPRP | -0.134
86 | RRIRWRPPRLPRPRPRPDIDPRP | 0.546
87 | RRIRWRPPRLPRPRPRPDIKPRP | -0.323
88 | RRIRWRPPRLPRPRPRPDLFPRP | 0.133
89 | RRIRWRPPRLPRPRPRPDNAPRP | -0.000159
90 | RRIRWRPPRLPRPRPRPDNDPRP | -0.0628
91 | RRIRWRPPRLPRPRPRPDNEPRP | 0.403
92 | RRIRWRPPRLPRPRPRPDPLPRP | 0.221
93 | RRIRWRPPRLPRPRPRPDPTPRP | 0.691
94 | RRIRWRPPRLPRPRPRPDQQPRP | 0.0822
95 | RRIRWRPPRLPRPRPRPDQWPRP | 0.399
96 | RRIRWRPPRLPRPRPRPDSDPRP | 0.0473
97 | RRIRWRPPRLPRPRPRPDSRPRP | -0.251
98 | RRIRWRPPRLPRPRPRPDVHPRP | -0.0103
99 | RRIRWRPPRLPRPRPRPDWLPRP | 0.111
100 | RRIRWRPPRLPRPRPRPDYLPRP | -0.0223

Row | Sequence | shrunken log2 fold change
101 | RRIRWRPPRLPRPRPRPDYVPRP | -0.208
102 | RRIRWRPPRLPRPRPRPEAWPRP | 1.02
103 | RRIRWRPPRLPRPRPRPEDHPRP | 0.304
104 | RRIRWRPPRLPRPRPRPEEQPRP | 0.149
105 | RRIRWRPPRLPRPRPRPEHAPRP | 0.921
106 | RRIRWRPPRLPRPRPRPEIIPRP | 0.231
107 | RRIRWRPPRLPRPRPRPEIKPRP | -0.0674
108 | RRIRWRPPRLPRPRPRPEINPRP | 0.267
109 | RRIRWRPPRLPRPRPRPEKAPRP | -0.0225
110 | RRIRWRPPRLPRPRPRPELCPRP | 0.579
111 | RRIRWRPPRLPRPRPRPEMGPRP | 0.271
112 | RRIRWRPPRLPRPRPRPENMPRP | -0.185
113 | RRIRWRPPRLPRPRPRPENVPRP | 0.0417
114 | RRIRWRPPRLPRPRPRPEPKPRP | 0.393
115 | RRIRWRPPRLPRPRPRPEPPPRP | 0.977
116 | RRIRWRPPRLPRPRPRPESGPRP | 0.347
117 | RRIRWRPPRLPRPRPRPETFPRP | 0.0493
118 | RRIRWRPPRLPRPRPRPEVIPRP | 0.0286
119 | RRIRWRPPRLPRPRPRPEWNPRP | 0.482
120 | RRIRWRPPRLPRPRPRPEWSPRP | 0.0628
121 | RRIRWRPPRLPRPRPRPEWVPRP | 0.927
122 | RRIRWRPPRLPRPRPRPFADPRP | 0.737
123 | RRIRWRPPRLPRPRPRPFCDPRP | 0.189
124 | RRIRWRPPRLPRPRPRPFDEPRP | 0.129
125 | RRIRWRPPRLPRPRPRPFDNPRP | -0.114

Row | Sequence | shrunken log2 fold change
126 | RRIRWRPPRLPRPRPRPFECPRP | -0.01
127 | RRIRWRPPRLPRPRPRPFEHPRP | -0.113
128 | RRIRWRPPRLPRPRPRPFESPRP | -0.0622
129 | RRIRWRPPRLPRPRPRPFFGPRP | 0.352
130 | RRIRWRPPRLPRPRPRPFGGPRP | 0.0764
131 | RRIRWRPPRLPRPRPRPFHDPRP | -0.285
132 | RRIRWRPPRLPRPRPRPFHIPRP | -0.655
133 | RRIRWRPPRLPRPRPRPFIGPRP | -0.38
134 | RRIRWRPPRLPRPRPRPFIQPRP | -0.437
135 | RRIRWRPPRLPRPRPRPFKPPRP | -0.231
136 | RRIRWRPPRLPRPRPRPFMPPRP | -0.714
137 | RRIRWRPPRLPRPRPRPFMVPRP | -0.371
138 | RRIRWRPPRLPRPRPRPFNMPRP | -0.298
139 | RRIRWRPPRLPRPRPRPFQMPRP | -0.692
140 | RRIRWRPPRLPRPRPRPFQSPRP | -0.0153
141 | RRIRWRPPRLPRPRPRPFQVPRP | -0.19
142 | RRIRWRPPRLPRPRPRPFSEPRP | -0.186
143 | RRIRWRPPRLPRPRPRPFSGPRP | 0.0272
144 | RRIRWRPPRLPRPRPRPFSKPRP | -0.0531
145 | RRIRWRPPRLPRPRPRPFSLPRP | 0.141
146 | RRIRWRPPRLPRPRPRPFSMPRP | -0.0921
147 | RRIRWRPPRLPRPRPRPFSQPRP | -0.0772
148 | RRIRWRPPRLPRPRPRPFVFPRP | -0.0764
149 | RRIRWRPPRLPRPRPRPFVHPRP | -0.423
150 | RRIRWRPPRLPRPRPRPFVMPRP | -1.01
